Tests used:
[1] = Fluorogen binding affinity to soluble FBPs (MG-2p); settings: soluble versus yeast surface displayed FBP
Procedure: (§1) Binding affinity to soluble scFvs was determined by monitoring fluorogenic signal under conditions of ligand depletion using a homogenous 96 well microplate assay similar to above. 1 nM HL1.0.1-TO1, 10 nM L5-MG and 100 nM HL4-MG were each assayed with a 0.1 to 1000 nM range of fluorogen. Fluorescence of each FBP+dye sample was corrected by subtracting the fluorescence of a dye only sample. KD values were determined by non-linear regression using Graphpad Prism 4.0 and a ligand depletion algorithm. Y═(X+KD+R−√{square root over ((−X−KD−R)^2−4*X*R)})÷2 where X is the concentration of fluorogen, and R is the concentration of FBP/fluorogencomplex at the observed or extrapolated plateau at maximum fluorescence. Determination of Quantum Yields

[2] = Fluorogen binding affinity to yeast surface displayed FBPs (TO1-2p)
Procedure: Cell surface KD values were determined on Prism Graphpad Prism 4.0 software by non-linear regression analysis using a one-site binding algorithm for saturation binding: Y═Bmax*X═(KD+X) where X is the concentration of fluorogen. Determination of Fluorogen Binding Affinity to Soluble FBPs

[3] = Spectral characterization of yeast surface displayed FBPs (TO1-2p); assay type: physicochemical; settings: cell surface; for excitation maximum: free dye absorbance 504 nm
Procedure: 10^6 cells in 200 μl yeast buffer were assayed with 100-1000 nM MG-2p or TO1-2p. Spectra were corrected by subtraction of fluorescence of control cells not expressing scFvs.

[4] = Cell surface complementation, fluorescence spectrometer on cell suspensions; assay type: cell-based, yeast; settings: for Fluorescence: 1 μM TO1-2P, excitation 506 nm, emission 610 nm, corrected for buffer+dye and no-dye samples
Procedure: (§2) In the following experiments three classes of yeast cells were generated by molecular biology methods known in the art. One class of yeast expressed only the heavy chain of the scFv on the surface. A second class expressed only the light chain of the scFv on its surface. The third class expressed both the heavy and light chains on the surface. When the fluorescent reporter TO1 was added independently to solutions containing the three classes of yeast cells, only the third class that expressed both heavy and light chains at a high surface density produced a fluorescence increase, as shown below. Specifically, two vectors, pPNL6 and pPNL6URA3 were prepared, where the TRP1 gene of pPNL6 was replaced with the URA3 gene of S. cerevisiae. This approach allowed selection for both plasmids in a single cell. Fragments carrying scFv1, scFv1 HO (heavy only chain), or scFv1 LO (light only chain) were cloned into each of the two vectors.
JAR200 yeast cells were transformed with each single plasmid as well as both scFv1 HO (PNL6)+scFv1 LO (PNL6URA3) or both scFv1 HO (PNL6URA3)+scFv1 LO (PNL6). Analysis by FACS and TECAN followed induction of the cells. In both cases, 1 μM TO1-2P was used.
In the second approach, a fluorescence spectrometer was used to quantify the fluorescence from suspensions of cells. The fluorescence excitation wavelength was 506 nm and the emission wavelength was 610 nm. Values presented below are corrected from raw data by subtracting out the values for (buffer+dye) and induced (no dye) samples. They were then corrected for the per cent of the population that was induced, as determined by the flow cytometry analysis.

[5] = Cell surface complementation, flow cytometry of TO1-2p fluorescence; assay type: cell-based; settings: 1 μM TO1-2P, induced JAR200 yeast, emission at 530
Procedure: as §2, with “vectors. […]” for “vectors.”
In the first approach, flow cytometry was used to assay cellular fluorescence of the three classes of yeast in the presence and absence of TO 1. The population of induced cells was analyzed by measuring fluorescence emitted at 685 from a signal caused by protein labeled by anti-C-myc Alexa 647. […] For cells that expressed full length fragments the TO1-2p fluorescence was observed as emission at 530.

[6] = Quantum yield and absorbance of FBP/TO1-2p complex; assay type: physicochemical
Procedure: (§3) FIG. 15 provides graphs illustrating absorbance of fluorogens and FBP/fluorogen complexes. Shown are samples used in quantum yield determinations. The absorbance of FBP/fluorogen complexes is obtained on a dual beam PerkinElmer Lambda 45 spectrophotometer using an equal concentration of FBP without fluorogen as the reference.
(§4) Quantum yields were determined by comparing integrated spectra of FBP/fluorogen complexes with those of reference dyes. Corrected emission spectra were taken at concentrations of FBP/fluorogen complex and reference dyes giving similar absorbances at the excitation wavelength, and the intensity integral computed. Provisional quantum yields were calculated by the relation:
(§5) [formula] where (phi is the quantum yield, I is the integrated intensity, A is the absorbance, η is the refractive index, and R designates the reference dye. Provisional quantum yields were adjusted to 1:1 complexation by using the solution KD of the complex to quantify the proportional occupancy at these concentrations (using Graphpad Prism 4.0 and the above ligand depletion algorithm).
A cyanic dye, Cy5.18 in PBS and Di-S—C2-(5) in MeOH were used as reference fluorophores for the determination of HL4-MG/MG-2p and L5-MG/MG-2p quantum yields. […] These differences in absorbance magnitude underrepresent actual differences because of incomplete complexation at these concentrations. […]

[7] = Fluorogenic enhancement of purified FBP (TO1-2p); assay type: biochemical; settings: direct measurement
Procedure: (§6) Fluorogenic enhancement of HL4-MG, L5-MG and HL1.0.1-TO1 was measured in 96 well microplates on a Tecan Safire2 reader by comparison of the fluorescence of 500 nM free fluorogen with the fluorescence of a mixture of 500 nM fluorogen and 2 μM respective FBP. After a 1 hour incubation to allow complex formation, fluorescence was measured at the excitation and emission maxima of the fluorogen/FBP complexes. Fluorescence of yeast PBS buffer was subtracted from all samples. Fluorescence readings were stable for at least 16 hours.
(§7) Extended gain settings were used to increase numerical accuracy. For HL4-MG and L5MG, the differences in fluorescence between complexes and free dye exceeded the extended gain range of the instrument, so intermediate concentrations of Cy5 were also measured to allow interpolation between the extreme values. Two independent experiments, each with triplicate measurements, were carried out for each of the 3 FBPS; standard deviations for averaged values of FBPS, free fluorogen or PBS were less than 5%. The fold-enhancement values for HL4-MG and L5-MG were respectively multiplied by 1.35 and 1.20 to correct for partial complexation.

[8] = Fluorogen binding affinity to soluble FBPs (TO1-2p); settings: soluble FBP, in words
Procedure: as §1

[9] = Fluorogenic enhancement of purified FBP (MG-2p); assay type: biochemical; settings: HL4-MG/MG-2p complex
Procedure: as §6, §7

[10] = Quantum yield and absorbance of FBP/MG-2p complex; assay type: physicochemical
Procedure: as §3, §4, §5
A cyanic dye, Cy5.18 in PBS and Di-S—C2-(5) in MeOH were used as reference fluorophores for the determination of HL4-MG/MG-2p and L5-MG/MG-2p quantum yields. 2 μM scFv and 440 nM MG-2p were employed; emission spectra of respective complexes were taken in duplicate. […] These differences in absorbance magnitude underrepresent actual differences because of incomplete complexation at these concentrations. HL4MG/MG-2p and L5-MG/MG-2p quantum yields were respectively multiplied by 1.35 and 1.20 to correct for incomplete complexation. Fluorescein in 0.1 N NaOH and Rhodamine-6-G in MeOH were used as reference fluorophores for the determination of the quantum yield of HL1.0.1-TO1/TO12p. At the employed concentrations of 2 μM scFv and 520 nM TO1-2p, virtually complete complexation is expected, and no correction was used. Only slight changes in absorbance magnitude were noted.

B1: L5-MG: malachite green binding light chain only FBP, SEQ ID NO: 13 (antibody)
VL: SASTGSFDSWGQGTLVTVSSGILGSGGGGSGGGGSGGGGSQAVVTQEPSVTVSPGGTVILTCGSSTGAVTSGHYANWFQQKPGQAPRALIFETDKKYSWTPGRFSGSLLGAKAALTISDAQPEDEAEYYCLLSDVDGYLFGGGTQLTVLSGILEQKLISEEDL
modifications: scFv sequence, (GILEQKLISEEDL at end of sequence is derived from a vector)
With B1 as the molecule, how does the “reduced affinity for MG-2p in solution as compared to surface display” value [1] read?
Its value is 265 fold.

B2: HL2-TO1: fluorogen binding scFv, SEQ ID NO: 5 (protein)
scFv: QVQLQQGGAGLLKPSETLSLTCGVYGGSFSGYYWSWIRQSPGKGLEWIGEINHSGSANYNPSVKSRVTISVDTSKNQFSLQLSSVTAADTAVYYCARDRAVLTGEGWYFDLWGRGTLVTVSSGILGSGGGGSGGGGSGGGGSSYELTQPPSVSVSPGQTASITCSGDKLGDKYTCWYQQKPGQSPVLVLYEDTKRPSGIPERFSGSNSGNTATLTISRVEAGDEADYYCQLWDSSSDHYVFGSGTKLTVL
modifications: scFv sequence
With B2 as the molecule, how does the dissociation constants ([2]; yeast surface displayed FBP, TO1-2p, in words) read?
Its dissociation constants is “high nanomolar range”.

What about the emission maxima [3] of the same molecule?
Its emission maxima is 550 nm.

What about the excitation maximum [3] of the same molecule?
The excitation maximum was 515 nm.

B3: HO PNL6: scFv1 heavy chain only, vector pPNL6, displayed on yeast (antibody, V domains shown)
VH: QVQLVESEAEVKKPGSSVKVSCKASGGTFSSYAISWVRQAPGQGLEWMGGIIPIFGTANYAQKFQGRVTITADESTSTAYMELSSLRSEDTAVYYCVLLDTTMVTGYYFDYWGQGTLVTVSS
For B3, which Fluorescence [4] is on record?
The Fluorescence was 135.

And the “F/ (% Pop IND)” value ([4]; fluorescence corrected for per cent of population induced)?
The value was 160.

What about the “MEAN 530 SIGNAL” value [5] of the same molecule?
Its value is 88.

B4: HO PNL6URA3: scFv1 heavy chain only, vector pPNL6URA3, displayed on yeast (antibody, V domains shown)
VH: QVQLVESEAEVKKPGSSVKVSCKASGGTFSSYAISWVRQAPGQGLEWMGGIIPIFGTANYAQKFQGRVTITADESTSTAYMELSSLRSEDTAVYYCVLLDTTMVTGYYFDYWGQGTLVTVSS
With B4 as the molecule, how does the Fluorescence [4] read?
The Fluorescence was −605.

What about the “MEAN 530 SIGNAL” value [5] of the same molecule?
Its value is 82.

B5: HL1.0.1-TO1: affinity matured fluorogen binding scFv, SEQ ID NO: 7 (protein)
scFv: QVQLVESEAEVKKPGSSVKVSCKASGGTFSSYAISWVRQAPGQGLEWMGGTIPIFGTADYAQEFQGRVTITTDESTSTAYMELSGLRSEDTAVYYCVLLGTTMVTGHYFDYWGQGTLVTVSSGILGSGGGGSGGGGSGGGGSNFMLTQPPSASGTPGQSVTISCSGSGSNIGNNKVNWYQQLPGTAPKLLIYSNNQRPSGVPDRFSGSKSGTSASLAISGLQSEDEADYYCAAWDDGLSGYVFGTGTKLTVL
modifications: scFv sequence
With B5 as the molecule, how does the extinction coefficient [6] read?
Its extinction coefficient is 60,000 M^−1 cm^−1.

What about the quantum yield [6] of the same molecule?
The quantum yield was 0.47.

And the Kd ([2]; yeast cell surface displayed FBP, fluorogen TO1-2p)?
Its Kd is ~3 nM.

What about the “fluorescence increase of TO1-2p upon binding” value [7] of the same molecule?
The value was “about 2,600 fold”.

What about the KD in solution [8] of the same molecule?
The KD in solution was “very similar to that observed on the cell surface”.

And the emission maxima [3]?
The emission maxima was 530 nm.

What about the excitation maximum [3] of the same molecule?
Its excitation maximum is 509 nm.

B6: HL4-MG: malachite green binding scFv, SEQ ID NO: 11 (protein)
scFv: QVQLVESEGGLVQPGGSLRLSCAASGFTFSSYEMNWVRQAPGKGLEWVSRIDGDGSSTNYADSVKGRFTISRDNAKSTLYLQMNSLRAEDTAVYYCTRARYFGSVSPYGMDVWGQGTTVTVSSGILGSGGGGSGGGGSGGGGSDIRVTQSPSSVSASVGDRVTISCRASQGIATWLGWYQQKPGKPPQLLIYSASTLQTGVPSRFSGSGSGTDFTLTISSLQPEDVATYYCQEGSTFPLTFGGGTKVDIKSGILEQKLISEEDL
modifications: scFv sequence, (GILEQKLISEEDL at end of sequence is derived from a vector)
What does the source list for B6?
fluorescence enhancement as compared to free fluorogen [9]: about 18,000 fold; reduced affinity for MG-2p in solution as compared to surface display [1]: 185 fold; absorbance of FBP/fluorogen relative to free MG-2p [10]: more than 1.4 fold; extinction coefficient [10]: about 105,000 M^−1 cm^−1; quantum yield [10]: 0.17

Reference: patent publication US9688743B2, “Optical biosensors” (Carnegie Mellon University, priority 2007, dated 2017)
